Source: patent US20220162684
Read-outs that look alike come from different tables or passages of the source.

Assays:
[1] = tested on: HHH peptide (biotinylated histidine trimer) (synthetic); details: quantum dot multivalent probe
[2] = tested on: HHH peptide (biotinylated histidine trimer) (synthetic)

For “CAAGCAGAAGACGGCATACGAGATCATGCTTCCCCAGGGAGATGGTTTGCCGGTGGGCAGGTTTAGGGTCTGCTCGGGATTGCGGAGGAACATGCGTCGCAAACGTGTAGATCTCGGTGGTCGCCGTATCATT [P7-B1-P5 aptamer]”, the EC50 [1] was 60 nM, the EC50 ([2]; single aptamer on SureLight APC) was 2.3 nM and the EC50 ([2]; single aptamer on streptavidin-APC) was 29.9 nM. It also gave an EC50 ([2]; single aptamer on streptavidin-Alexa Fluor 647) of 28 nM.
